Measurements from US20240254220A1 (CENTRICSBIO, published 2024).

Tests used:
[1] = biological target: T1, CD300c antigen (11832-H08H, Sino Biological) (human, UniProt Q08708 21-183); assay: binding ELISA on coated CD300c antigen (800 ng/mL), anti-Fc secondary antibody, 450 nm (Experimental Example 2.3)
T1 construct: Bought antigen; also called CD300c protein; CD300 antigen-like family member C
T1 sequence (looked up): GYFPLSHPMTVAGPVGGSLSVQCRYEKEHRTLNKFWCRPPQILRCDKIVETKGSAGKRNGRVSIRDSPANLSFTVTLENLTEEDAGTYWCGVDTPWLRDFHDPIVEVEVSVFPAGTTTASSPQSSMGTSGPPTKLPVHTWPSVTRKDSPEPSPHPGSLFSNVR
Protocol: CD300c antigen (250 ug/mL) was diluted to a concentration of 800 ng/mL in coating buffer (0.1 M sodium carbon ate, pH 9.0), placed into a 96-well microplate at 100 μL per well, and incubated at 4° C. overnight. The next day, the microplate was washed three times with 200 μL of PBST. Thereafter, 200 μL of a blocking buffer (5% skim milk) was added thereto, followed by blocking at room temperature for 1 hour. The anti-CD300c monoclonal antibody CL7 was diluted to 200 μg/mL in PBS, and the concentration thereof was checked by measurement using Nanodrop (product name: NanoDrop One/One, manufactured by Thermo Fisher Scientific). Subsequently, CL7 was diluted in quadruplicate with PBS starting from 10 μg/mL, and added at 100 μL each, followed by incubation at room temperature for 1 hour. After the incubation, the microplate was washed three times with […] of PBST. A secondary antibody (conjugated anti-Fc IgG) was diluted 1:10,000 in blocking buffer, and added at 100 μL, followed by incubation at room temperature for 1 hour, and then washed three times with 200 μL of PBST. Subsequently, TMB and hydrogen peroxide were mixed 1:1, and added at 100 μL per well, followed by incubation at room temperature for 7 to 9 minutes.

[2] = biological target: T2, CD300c on the surface of cells (human, UniProt Q08708 21-224); assay: flow cytometry (FACS binding) on THP-1 cells overexpressing CD300c, FITC anti-human IgG (H+L), MFI
T2 construct: whole, on cells; also called cellular antigen
T2 sequence (looked up): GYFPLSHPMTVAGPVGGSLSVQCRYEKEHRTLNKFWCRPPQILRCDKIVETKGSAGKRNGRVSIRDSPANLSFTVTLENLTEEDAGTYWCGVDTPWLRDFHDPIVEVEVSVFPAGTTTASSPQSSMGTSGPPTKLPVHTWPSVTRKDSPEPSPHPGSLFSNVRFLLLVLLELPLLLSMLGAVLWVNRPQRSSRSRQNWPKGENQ
Protocol: In order to identify whether the anti-CD300c monoclonal antibody (CL7) recognizes a cellular antigen, FACS binding was performed.
Then, the cells were incubated with the anti-CD300c monoclonal antibody, which was serially diluted 3-fold starting from 10 μg/mL, in a CO₂ incubator for 30 minutes, and washed twice with FACS buffer. Then, the cells were incubated with FITC-conjugated anti-human IgG (H+L), which was diluted 1:100 in FACS buffer, in a CO₂ incubator for 30 minutes, and washed twice with FACS buffer. Subsequently, FITC signals were measured with a CytoFLEX instrument manufactured by Beckman Coulter, Inc., and then the MFI values were obtained using CytExpert program.

[3] = biological target: T1, CD300c antigen (11832-H08H, Sino …); assay: SPR, CD300c immobilised on the chip (399.2 RU), CL7 as analyte at 0-6.25 µg/mL; CD300c on the chip, CL7 as analyte
Protocol: In order to identify the binding affinity between the antigen CD300c and the anti-CD300c monoclonal antibody CL7, a surface plasmon resonance experiment was performed.
To immobilize CD300c on a […], 5 μg/mL of CD300c was diluted in 10 mM acetate buffer (pH 5.5). Then, the flow rates were all set equally to […], and the target RU was respectively set to 300 RU. […] by a mixture of 0.2 M EDC and 0.05 M NHS, and blocked with 1 M ethanolamine to perform the immobilization so that the final RU of CD300c became 399.2 RU. Then, CL7 was diluted in PBSP to concentrations of 0, 0.195, 0.39, 0.78, 1.56, 3.125, and 6.25 μg/mL, separately. […] Subsequently, 50 mM NaOH was allowed to flow at a rate of 30 μL/min for 30 seconds to regenerate the surface.

[4] = biological target: T3, CD300a antigen (12449-H08H, Sino Biological) (UniProt Q9UGN4 18-178); assay: binding ELISA on coated antigen (8 µg/mL), HRP anti-Fc detection, 450 nm (Experimental Example 2.5)
T3 sequence (looked up): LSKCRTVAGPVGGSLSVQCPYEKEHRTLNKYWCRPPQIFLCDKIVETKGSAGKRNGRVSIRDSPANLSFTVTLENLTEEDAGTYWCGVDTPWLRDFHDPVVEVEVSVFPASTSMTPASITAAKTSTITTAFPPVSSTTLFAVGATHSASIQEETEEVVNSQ
Protocol: In order to identify that the anti-CD300c monoclonal antibody CL7 specifically binds only to CD300c without binding to other B7 family proteins, binding ELISA was performed. More specifically, each of CD300c antigen, CD300a antigen, or seven B7 family protein antigens (PD-L1 [B7-H1] (Sino Biological), ICOS Ligand[B7-H2] (Sino Biological), CD276[B7-H3] (Sino Biological), B7-H4 (Sino Biological), CD80[B7-1] (Sino Biological), CD86[B7-2] (Sino Biological), CD273[PD-L2] (Sino Biological)) in a coating buffer (0.1 M sodium carbonate, pH 9.0) was coated on an ELISA plate at a concentration of 8 μg/mL per well, and then bound to the plate by incubation at 2° C. to 8° C. overnight. The unbound antigen was removed by washing with PBST three times, and then […] of blocking buffer (5% skim milk in PBST) was added to each well. Subsequently, blocking was performed at room temperature for 1 hour, followed by washing again with PBST. Thereafter, CL7 was diluted in quadruplicate with PBS, incubated with the antigen at room temperature for 1 hour for antigen binding 1 hour later, and washed three times with PBST. Then, a secondary antibody (HRP-conjugated anti-Fc IgG) diluted to 4 μg/mL in blocking buffer was added thereto, followed by incubation at room temperature for 1 hour. Subsequently, the unbound antibody for detection was removed using PBST, and then a TMB solution was added thereto, followed by incubation for 10 minutes for development. Then, 2 N sulfuric acid solution was added to terminate the development reaction, and the absorbance was measured at 450 nm to identify the antibody specifically binding to the CD300c antigen.

EC50 (read off the curve) [1]: ~0.06 µg/mL
EC50 [2]: 2.6 nM
Kd [3]: 0.52 nM
B1: CL7 (antibody, V domains shown)
VH: EVQLLESGGGLVQPGGSLRLSCAASGFTFSRYAMSWVRQAPGKGLEWVSAISGSGGSTYYADSVKGRFTISRDNSKNTLYLQMNSLRAEDTAVYYCARSSQGIFDIWGQGTLVTVSS
VL: QSVLTQPPSASGTPGQRVTISCSGNNIGTRRVHWYQQLPDTAPKLLIYSKNNRPSGVPDRFSGSKSGTSASLAISGLRSEDEADYYCAAWDDSLSGPVFGGGTKLTVL
notes: detected with anti-human IgG (H+L) and anti-Fc IgG; also called anti-CD300c monoclonal antibody CL7; anti-CD300c monoclonal antibody (CL7)
binding result [4]: no binding (tested: log10 about 0.4 ug/ml (about 2.5 ug/ml))
